Assay results taken from patent US8540999B2, “Allergenic proteins and peptides from Japanese cedar pollen” (Merck Patent GmbH, priority 1991, dated 2013).
Values belong to the molecule of their own block, whether it stands above or below them.

Columns and labels:
[1] = system: Cry j I reactive T cells; test: T cell proliferation assay, Cry j I primed T cell lines (Example 6); assay type: cell-based, human
Experimental: Viable cells were purified by LSM centrifugation and cultured in complete medium supplemented with 5 units recombinant human IL-2/ml and 5 units recombinant human IL-4/ml for up to three weeks until the cells no longer responded to lymphokines and were considered “rested”. The ability of the T cells to proliferate to selected peptides, recombinant Cry j I (rCry j I), purified native Cry j I, or recombinant Amb aI.1 (rAmb aI.1) or a positive control, phyto-hemaglutinin (PHA) was then assessed. For assay, 2×10^4 rested cells were restimulated in the presence of 2×10^4 autologous Epstein-Barr virus (EBV)-transformed B cells (prepared as described below) (gamma-irradiated with 25,000 RADS) with 2-50 μg/ml of selected peptides, Cry j I, purified native Cry j I or rAmb a I.1 or PHA, in a volume of 200 μl complete medium in duplicate or triplicate wells in 96-well round bottom plates for 2-4 days. […] Each well then received 1 μCi tritiated thymidine for 16-20 hours. The counts incorporated were collected onto glass fiber filter mats and processed for liquid scintillation counting. […] The titrations were used to optimize the dose of peptides in T cell assays. The maximum response in a titration of each peptide is expressed as the stimulation index (S.I.). The S.I. is the counts per minute (CPM) incorporated by cells in response to peptide, divided by the CPM incorporated by cells in medium only.
The above procedure was followed with a number of other patients. […] The bars represent the positivity index. Above each bar is the percent of positive responses with an S.I. of at least two to the peptide or protein in the group of patients tested. In parenthesis above each bar are the mean stimulation indices for each peptide or protein for the group of patients tested.
Autologous EBV-transformed cell lines were y-irradiated with 25,000 Rad and used as antigen presenting cells in secondary proliferation assays and secondary bulk stimulations. These EBV-transformed cell lines were made by incubating 5×10^6 PBL with 1 ml of B-59/8 Marmoset cell line (ATCC CRL1612, American Type Culture Collection, Rockville, Md.) conditioned medium in the presence of 1 μg/ml phorbol 12-myristate 13-acetate (PMA) at 37° C. for 60 minutes in 12×75 mm polypropylene round-bottom Falcon snap cap tubes (Becton Dickinson Labware, Lincoln Park, N.J.). These cells were then diluted to 1.25×10^6 cells/ml in RPMI-1640 as described above except supplemented with 10% heat-inactivated fetal bovine serum and cultured in 200 μl aliquots in flat bottom culture plates until visible colonies were detected. They were then transferred to larger wells until the cell lines were established.

[2] = system: Secondary T cell cultures reactive with Cry j I protein antigen; test: In vitro T cell proliferation assay, secondary T cell cultures of 36 Cry j I-allergic subjects, percent T cell reactivity algorithm; assay type: cell-based, human; details: patient 1308; highest S.I. >= 2.0 recorded per peptide
[3] = system: allergic patient IgE; test: Direct ELISA, IgE binding to rCry j I and Cry j I peptides (Example 8); design: species or system human
Experimental: The recombinant Cry j I protein (rCry j I), expressed in bacteria and then purified (as described in Example 5), has been examined for IgE reactivity. The first method applied to this examination was direct ELISA where wells were coated with the recombinant Cry j I and IgE binding was assayed on individual patients. FIG. 9 is the graphic representation of this direct ELISA.
To analyze IgE reactivity to selected Cry j I peptides a direct ELISA format was used. ELSIA wells were coated with 25 peptides derived from Cry j I and assayed for IgE binding. FIG. 15a and 15b are graphs of these binding results using PHP (15 patients) as the cedar pollen allergic IgE source. This pool of plasma was formulated for enrichment of IgE that could bind to denatured SPE (as determined by direct ELISA) and therefore increase the chance of reactivity toward the peptides.

[4] = system: human allergic IgE; test: Capture ELISA with MAb CBF2; assay type: binding; details: pooled human plasma (15 patients), FIG. 10a
Experimental: Another method of analysis that was applied to the examination of IgE reactivity to the recombinant Cry j I was a capture ELISA. This analysis relies on the use of a defined antibody, in this case CBF2 to bind the antigen and allow for the binding of antibodies to other epitope sites. The format of this capture ELISA is 1) wells are coated with MAb CBF2, 2) antigen or PBS (as one type of negative control) is added and captured by specific interaction with the coated MAb, 3) either the control antibody anti-Amb a I & II (FIG. 10b) or human allergic plasma (FIG. 10a) is added as the detecting antibody, and 4) detection of antibody binding is assayed. FIGS. 10a and 10b are the graphed results of these assays. For the IgE analysis, the pooled human plasma (PHP) (15 patients) was used.

[5] = system: IgE; test: RAST, competition ELISA and Western blotting (data not shown); assay type: binding, human
[6] = system: human basophil; test: Histamine release assay; assay type: cell-based; details: one Japanese cedar pollen allergic patient, FIG. 11
Experimental: To determine whether a peptide which binds IgE results in the release of mediators, a histamine release assay can be performed using standard reagents and protocols obtained for example, from Amac, Inc. (Westbrook, Me.). Briefly, a buffered solution of a peptide to be tested is combined with an equal volume of whole heparinized blood from an allergic subject. After mixing and incubation, the cells are pelleted and the supernatants are processed an analyzed using a radioimmunoassay to determine the amount of histamine released.
A histamine release assay was performed on one Japanese cedar pollen allergic patient using Japanese cedar pollen SPE, purified native Cry j I and rCry j I as the added antigens. This assay is a measure of IgE reactivity through human basophil mediator release. […] Two possible explanations for this release by the rCry j I are: 1) specific reactivity with a very low proportion of the anti-Cry j I IgE capable of recognizing the recombinant form of Cry j I, or 2) non-specific release caused by low abundance of bacterial contaminants observed only at the highest antigen concentration. […] In addition, the data shown are from single data points at each protein concentration.

Molecule: CJ1-30: Cry j I peptide, SEQ ID NO: 55 (CSNWVWQSTQDVFYNGAYFV; listed as Cryptomeria japonica)
- T cell line response ([1]; panel of twenty-five patients, FIG. 14): responded
- STIMULATION INDEX [2]: 0

- IgE binding, direct ELISA ([3]; PHP (15 patients), FIG. 15): does not bind
- IgE reactivity, direct ELISA ([3]; individual patients, FIG. 9): no IgE reactivity
- specific binding of human allergic IgE, capture ELISA [4]: no indication of any specific binding
B1: rCry j I: recombinant Cry j I protein expressed in bacteria (E. coli) and purified (protein)
chain: DNPIDSCWRGDSNWAQNRMKLADCAVGFGSSTMGGKGGDLYTVTNSDDDPVNPAPGTLRYGATRDRPLWIIFSGNMNIKLKMPMYIAGYKTFDGRGAQVYIGNGGPCVFIKRVSNVIIHGLYLYGCSTSVLGNVLINESFGVEPVHPQDGDALTLRTATNIWIDHNSFSNSSDGLVDVTLTSTGVTISNNLFFNHHKVMLLGHDDAYSDDKSMKVTVAFNQFGPNCGQRMPRARYGLVHVANNNYDPWTIYAIGGSSNPTILSEGNSFTAPNESYKKQVTIRIGCKTSSSCSNWVWQSTQDVFYNGAYFVSSGKYEGGNIYTKKEAFNVENGNATPQLTKNAGVLTCSLSKRC
modifications: left off: small tags and cut ends
notes: recombinant Cry j I protein expressed in bacteria (E. coli) and purified
- percent of positive responses with an S.I. of at least two ([1]; 25 patients / T cell lines, FIG. 14): 68.0%
- T cell proliferative response ([1]; patient #999, FIG. 12): responds well
- specific IgE reactivity [5]: no specific IgE reactivity
- histamine release [6]: only point where there is any measurable histamine release with the Cry j I is at the highest concentration
